The record followed here is article PMC5477490 (Nature Communications, 2016).

What all share (test): BLI; […] (AHC) biosensor, […]; Octet Red; 25 °C; kinetics buffer 1 × PBS, pH 7.4; association 900 s, dissociation 900 s; […]
Common to all, as to conditions: both partners purified

In assay [1] the target is T1, HA of A/Brevig Mission/1/1918(H1N1) (Influenza A virus A/Brevig …, UniProt Q9WFX3, strain).
T1 construct: source: bought: Sino Biological Inc

In assay [2] the target is HA of A/Vietnam/1203/2004(H5N1) (Influenza A virus …, UniProt A8UDR6, strain).
Assay [3] has as its target HA of A/WSN/1933(H1N1) (Influenza A virus A/WSN/1933(H1N1), strain).
Assay [4] concerns the target HA of A/Anhui/1/2005(H5N1) (Influenza A virus A/Anhui/1/2005(H5N1), strain).
Assay [5] deals with HA of A/California/07/2009(H1N1) (Influenza A virus …, UniProt C3W5X2, strain).
For assay [6], the target named is HA of A/Canada/720/2005(H2N2) (Influenza A virus …, UniProt Q4ZH98, strain).
In assay [7] the target is HA of A/Brisbane/59/2007(H1N1) (Influenza A virus …, strain).
Assay [8] has as its target HA of A/Hong Kong/483/1997(H5N1) (Influenza A virus A/Hong …, strain).

B1: human mAb 3E1 (antibody, V domains shown)
VH: QVQLQESGPGLVKPSETLSLTCSVSGASISSYYWIWIRQPAGKGLEWIGRFYTSGSPNYNPSLRSRVTMSVDTSKNQFSLKLTSVTAADTAVYYCAREEHITFGGVIVRYWGQGTLVTVSS
VL: DIQMTQSPATLSASVGDRVSITCRASQSISSWLAWYQQKPGKAPKLLIYKASSLESGVPSRFSGSGSGSEFTLTISSLQPDDFAIYYCQQYNSYPWTFGQGTKVEIK
notes: IgG1, kappa; also called 3E1 mAb
Take B1: the binding result in assay [1] is given as “binds”; in assay [2], “binds”; in assay [3], “binds”; in assay [4], “binds”; in assay [5], “binds”; in assay [6] it was “no binding”. The binding result in assay [7] and in assay [8] was “binds” each time.
